Consider 53 molecules from patent US20060073152A1 (Genentech, published 2006).

For experiment [1], the target named is T1, rat serum albumin (rat, UniProt P02770 25-608).
T1 construct: also called Rat SA; RSA
Briefly: phage binding.

The target of experiment [2] is T2, human serum albumin (human, UniProt P02768 25-609).
T2 construct: also called Human SA; HuSA
The experiment can be described thus: phage binding.

No end group written: not given here.

T1 sequence (P02770 25-608 limits assumed): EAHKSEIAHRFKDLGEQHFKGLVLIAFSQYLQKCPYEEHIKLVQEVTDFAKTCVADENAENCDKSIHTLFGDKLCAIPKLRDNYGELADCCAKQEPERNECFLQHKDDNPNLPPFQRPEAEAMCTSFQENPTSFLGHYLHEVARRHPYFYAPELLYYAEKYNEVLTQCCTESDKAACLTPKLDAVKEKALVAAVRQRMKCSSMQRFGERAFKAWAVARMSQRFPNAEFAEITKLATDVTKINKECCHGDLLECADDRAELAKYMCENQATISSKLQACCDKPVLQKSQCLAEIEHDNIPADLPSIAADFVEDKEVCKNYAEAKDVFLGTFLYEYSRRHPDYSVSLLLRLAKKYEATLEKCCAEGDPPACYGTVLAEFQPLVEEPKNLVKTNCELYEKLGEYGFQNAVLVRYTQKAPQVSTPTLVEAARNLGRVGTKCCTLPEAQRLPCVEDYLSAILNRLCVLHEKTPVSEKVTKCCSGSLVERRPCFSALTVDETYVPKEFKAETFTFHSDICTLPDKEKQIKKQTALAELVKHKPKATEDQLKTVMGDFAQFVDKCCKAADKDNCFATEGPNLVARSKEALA

Consider QRHMMDFCLPKWGCLWGDGY (not fully specified (bridges); cysteine pairing not given here, on phage) [RB-R4], for which the binding result in experiment [1] was “binds”.
Consider RAAESSVCYWPGICFDRTEQ (on phage) [HB-H2], for which the binding result in experiment [2] is on record as “binds”.
Regarding KTCYFPGICWM (on phage) [HC-H10], the binding result in experiment [2] is “binds”.
ASEICYFPGICWMVE (on phage) [HBC-H12]: the binding result in experiment [2] was “binds”.
Take SGAICYVPGICWTHA (on phage) [HB-H7]: the binding result in experiment [2] is recorded as “binds”.

B1: HB-H16 (peptide)
peptide: RMPASLPCYWETICYESSEQ
modifications: not fully specified (bridges); cysteine pairing not given here; also: phage-displayed
notes: on phage
For B1, the binding result in experiment [2] is reported as “binds”.
With KMGRVDFCLPKWGCLWGDEL (not fully specified (bridges); cysteine pairing not given here, on phage) [RB-R13], the binding result in experiment [1] is listed as “binds”.
Turning to REPASLVCYFEDICFVRAEA (on phage) [HB-H3], the binding result in experiment [2] was “binds”.

B2: HBC-H15 (peptide)
peptide: KTEICYFPGICWMSG
modifications: not fully specified (bridges); cysteine pairing not given here; also: phage-displayed
notes: on phage
Consider B2, for which the binding result in experiment [2] was “binds”.
GMCYFPGICWA (on phage) [HC-H4]: the binding result in experiment [2] is listed as “binds”.
Regarding QGYMVDFCLPRWGCLWGDAN (not fully specified (bridges); cysteine pairing not given here, on phage) [RB-R12], the binding result in experiment [1] is on record as “binds”.
In the case of SREVCYYPGICWNGA (on phage) [HBC-H2], the binding result in experiment [2] is given as “binds”.
QSQLEDFCLPKWGCLWGDGF (not fully specified (bridges); cysteine pairing not given here, on phage) [RB-R15]: the binding result in experiment [1] is given as “binds”.
Consider SYAPCYFPGICWMGN (on phage) [HBC-H8], for which the binding result in experiment [2] is “binds”.
LAEMCYFPGICWMSA (on phage) [HBC-H7]: the binding result in experiment [2] is “binds”.
Consider ETCYFPGICWL (on phage) [HC-H12], for which, in experiment [2], the binding result was “binds”.
Turning to DICYIPGICWM (on phage) [HC-H6], in experiment [2], the binding result is listed as “binds”.
Take VRDMCYFPGICWKSE (on phage) [HBC-H19]: in experiment [2], the binding result is “binds”.
For the molecule VQEVCYFPGICWMQE (on phage) [HBC-H10], the binding result in experiment [2] is on record as “binds”.
The same measure, in the same setting: the same measure for EVRSFCTDWPAHYSCTSLQG (on phage) [HA-H74]: “binds”; for IVEMCYYPGICWISP (on phage) [HB-H10]: “binds”.

B3: HC-H2 (peptide)
peptide: KLCYFPGICWS
modifications: not fully specified (bridges); cysteine pairing not given here; also: phage-displayed
notes: on phage
Regarding B3, the binding result in experiment [2] is on record as “binds”.
On to QRPIMDFCLPKWGCLWEDGF (on phage) [RB-R7], for which the binding result in experiment [1] is recorded as “binds”.

B4: HBC-H18 (peptide)
peptide: RDTVCYFPGICWMAS
modifications: not fully specified (bridges); cysteine pairing not given here; also: phage-displayed
notes: on phage
Turning to B4, in experiment [2], the binding result is recorded as “binds”.
Regarding QTELCYFPGICWNES (on phage) [HBC-H13], the binding result in experiment [2] is recorded as “binds”.

B5: HBC-H4 (peptide)
peptide: GGEICYFPGICRVLP
modifications: not fully specified (bridges); cysteine pairing not given here; also: phage-displayed
notes: on phage
Regarding B5, the binding result in experiment [2] is recorded as “binds”.
Take DSEVCYFPGICWSGT (on phage) [HBC-H1]: the binding result in experiment [2] is reported as “binds”.

B6: HBC-H3 (peptide)
peptide: GTEVCYFPGICWGGG
modifications: not fully specified (bridges); cysteine pairing not given here; also: phage-displayed
notes: on phage
For the molecule B6, the binding result in experiment [2] was “binds”.

B7: HBC-H17 (peptide)
peptide: HAEICYFPGICWTER
modifications: not fully specified (bridges); cysteine pairing not given here; also: phage-displayed
notes: on phage
Turning to B7, in experiment [2], the binding result was “binds”.
As to QTRSFCADWPRHESCKPLRG (on phage) [HA-H76], the binding result in experiment [2] is “binds”.
Consider MEPSRSVCYAEGICFDRGEQ (on phage) [HB-H8], for which, in experiment [2], the binding result is “binds”.
Take GVRTFCQDWPAHNSCKLLRG (on phage) [HA-H73]: the binding result in experiment [2] is given as “binds”.
On to DMCYFPGICFN (on phage) [HC-H18], for which the binding result in experiment [2] was “binds”.
Consider ELCYFPGICWM (on phage) [HC-H20], for which the binding result in experiment [2] was “binds”.
On the same count and under the same terms, under EICYFPGICWM (on phage) [HC-H17] stands “binds”; under EVCYFPGICWM (on phage) [HC-H19], “binds”; under EICYFPGICWI (on phage) [HB-H12], “binds”.
Consider EMCYFPGICWT (on phage) [HC-H9], for which the binding result in experiment [2] is “binds”.

B8: HB-H13 (peptide)
peptide: ELCYFPGICWT
modifications: not fully specified (bridges); cysteine pairing not given here; also: phage-displayed
notes: on phage
Turning to B8, the binding result in experiment [2] is on record as “binds”.

B9: HC-H11 (peptide)
peptide: EVCYFPGICWF
modifications: not fully specified (bridges); cysteine pairing not given here; also: phage-displayed
notes: on phage
As for B9, the binding result in experiment [2] was “binds”.
The same measure, in the same setting: under ELCYFPGICWP (on phage) [HC-H15] stands “binds”; under DLCYFPGICWM (on phage) [HC-H3], “binds”.

B10: HC-H16 (peptide)
peptide: EVCYFPGICWE
modifications: not fully specified (bridges); cysteine pairing not given here; also: phage-displayed
notes: on phage
For the molecule B10, the binding result in experiment [2] is “binds”.
ALCYFPGICWM (on phage) [HC-H14]: the binding result in experiment [2] is “binds”.
On to DVCYFPGICWM (on phage) [HC-H8], for which the binding result in experiment [2] is reported as “binds”.
On the same count and under the same terms, the same measure for EMCYFPGICWS (on phage) [HC-H7]: “binds”.
With ERQMVDFCLPKWGCLWGDGF (on phage) [RB-R11], the binding result in experiment [1] is recorded as “binds”.

B11: HB-H18 (peptide)
peptide: RTAESLVCYWPGICFAQSER
modifications: not fully specified (bridges); cysteine pairing not given here; also: phage-displayed
notes: on phage
For B11, the binding result in experiment [2] is on record as “binds”.
For the molecule NDEICYFPGVCWKSG (on phage) [HBC-H11], the binding result in experiment [2] was “binds”.
Turning to LVPERIVCYFESICYERSEL (on phage) [HB-H4], the binding result in experiment [2] is given as “binds”.
For the molecule TTEMCYFPGICWKTE (on phage) [HBC-H14], the binding result in experiment [2] is “binds”.
On to DMCYFPGICWL (on phage) [HC-H13], for which the binding result in experiment [2] is reported as “binds”.
With EHDMCYFPGICWIAD (on phage) [HBC-H6], the binding result in experiment [2] was “binds”.
